Biological target: T1, AHR (Mus musculus, UniProt P30561)
T1 construct: from tissue; host or cells: mouse intestine (ileum / intestinal mucosa), in vivo
T1 sequence (P30561 10-848): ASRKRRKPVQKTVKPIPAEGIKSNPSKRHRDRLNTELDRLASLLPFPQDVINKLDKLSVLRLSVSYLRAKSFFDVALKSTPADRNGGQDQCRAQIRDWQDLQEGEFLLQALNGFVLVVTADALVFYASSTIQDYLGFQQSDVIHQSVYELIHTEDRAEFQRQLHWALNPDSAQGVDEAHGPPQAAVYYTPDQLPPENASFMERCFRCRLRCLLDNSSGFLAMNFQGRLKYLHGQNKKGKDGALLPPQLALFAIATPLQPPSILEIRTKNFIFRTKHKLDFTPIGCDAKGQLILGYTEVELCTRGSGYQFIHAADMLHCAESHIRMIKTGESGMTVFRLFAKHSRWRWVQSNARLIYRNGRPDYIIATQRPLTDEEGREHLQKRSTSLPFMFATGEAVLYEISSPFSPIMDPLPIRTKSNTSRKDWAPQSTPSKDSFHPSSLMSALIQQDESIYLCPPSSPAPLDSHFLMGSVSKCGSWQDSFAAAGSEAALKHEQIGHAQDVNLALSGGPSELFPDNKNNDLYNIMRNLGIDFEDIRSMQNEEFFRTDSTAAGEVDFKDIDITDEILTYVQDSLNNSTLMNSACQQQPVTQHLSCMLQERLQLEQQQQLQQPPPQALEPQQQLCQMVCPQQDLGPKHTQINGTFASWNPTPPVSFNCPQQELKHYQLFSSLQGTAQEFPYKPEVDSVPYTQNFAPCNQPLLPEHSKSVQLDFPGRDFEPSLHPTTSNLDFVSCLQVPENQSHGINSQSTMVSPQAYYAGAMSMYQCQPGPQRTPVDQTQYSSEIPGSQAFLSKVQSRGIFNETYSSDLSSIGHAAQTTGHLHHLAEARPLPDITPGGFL
Assay: AHR activation in mice by breast milk components (preliminary data)
Format: in vivo
From the text: iii. Other effects of breast milk. Although it is shown that breast milk inhibits TLR4 signaling in part via AHR activation (FIG. 15), potential AHR ligands within breast milk have not yet been thoroughly examined.

B1: epidermal growth factor (EGF): molecule enriched within breast milk shown to prevent NEC (protein, UniProt P01133 23-1207, looked up)
Pro-epidermal growth factor: PQHWSCPEGTLAGNGNSTCVGPAPFLIFSHGNSIFRIDTEGTNYEQLVVDAGVSVIMDFHYNEKRIYWVDLERQLLQRVFLNGSRQERVCNIEKNVSGMAINWINEEVIWSNQQEGIITVTDMKGNNSHILLSALKYPANVAVDPVERFIFWSSEVAGSLYRADLDGVGVKALLETSEKITAVSLDVLDKRLFWIQYNREGSNSLICSCDYDGGSVHISKHPTQHNLFAMSLFGDRIFYSTWKMKTIWIANKHTGKDMVRINLHSSFVPLGELKVVHPLAQPKAEDDTWEPEQKLCKLRKGNCSSTVCGQDLQSHLCMCAEGYALSRDRKYCEDVNECAFWNHGCTLGCKNTPGSYYCTCPVGFVLLPDGKRCHQLVSCPRNVSECSHDCVLTSEGPLCFCPEGSVLERDGKTCSGCSSPDNGGCSQLCVPLSPVSWECDCFPGYDLQLDEKSCAASGPQPFLLFANSQDIRHMHFDGTDYGTLLSQQMGMVYALDHDPVENKIYFAHTALKWIERANMDGSQRERLIEEGVDVPEGLAVDWIGRRFYWTDRGKSLIGRSDLNGKRSKIITKENISQPRGIAVHPMAKRLFWTDTGINPRIESSSLQGLGRLVIASSDLIWPSGITIDFLTDKLYWCDAKQSVIEMANLDGSKRRRLTQNDVGHPFAVAVFEDYVWFSDWAMPSVMRVNKRTGKDRVRLQGSMLKPSSLVVVHPLAKPGADPCLYQNGGCEHICKKRLGTAWCSCREGFMKASDGKTCLALDGHQLLAGGEVDLKNQVTPLDILSKTRVSEDNITESQHMLVAEIMVSDQDDCAPVGCSMYARCISEGEDATCQCLKGFAGDGKLCSDIDECEMGVPVCPPASSKCINTEGGYVCRCSEGYQGDGIHCLDIDECQLGEHSCGENASCTNTEGGYTCMCAGRLSEPGLICPDSTPPPHLREDDHHYSVRNSDSECPLSHDGYCLHDGVCMYIEALDKYACNCVVGYIGERCQYRDLKWWELRHAGHGQQQKVIVVAVCVVVLVMLLLLSLWGAHYYRTQKLLSKNPKNPYEESSRDVRSRRPADTEDGMSSCPQPWFVVIKEHQDLKNGGQPVAGEDGQAADGSMQPTSWRQEPQLCGMGTEQGCWIPVSSDKGSCPQVMERSFHMPSYGTQTLEGGVEKPHSLLSANPLWQQRALDPPHQMELTQ
modifications: Pro-epidermal growth factor
- AHR activation: can activate AHR in mice
